Reference: the nanobody polyreactivity screen of Harvey et al. (2022)

test: yeast display, Sf9 membrane polyspecificity reagent, FACS + sequencing; frameworks hold sequencing errors
In short: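 Polyreactivity labels are assigned by the sorting gate from which each nanobody was recovered. The gates were low and high (top ~1%), set on anti-HA fluorescence for expression and streptavidin fluorescence for reagent binding. Before sorting, galactose-induced (36–48 hours) yeast display cells were stained for 1 hour at 4 °C with 10% biotinylated, detergent-solubilized Sf9 membrane reagent.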

| Sequence | polyreactivity (PSR sort gate) |
| --- | --- |
| QVQLVESGGGLVQAGGSLRLSCAASGFIFGEYAMGWYRQAPGKERELVAAITWSGGSTSYADSVKGRFTSSRDNAKNTVYLQMNSLKPEDTAVYYCSARWHVYWGGFYYWGQVTQVTVSS | high polyreactivity |
| QVQLVESGGGLVQAGGSLRLSCAASGFIFGFYAMGWYRQAPGKERELVAAITSDGGTYYADSVKGRFTISRDNAKNTVYLQMNSLKPEDTAVYYCAARPPYTDSSPGERTYDYWGQGTQVTVSS | low polyreactivity |
| QVQLVESGGGLVQAGGSLRLSCAASGFIFGFYAMGWYRQAPWKERELVAAITSDGGTYYADSVKGRFTISRDNAKNTVYLQMNSLKPEDTAVYYCAADVLYEVFSWYVGYDYWGQGTQVTVSS | low polyreactivity |
| QVQLVESGGGLVQAGGSLRLSCAASGFIFGGNAMGWYRQAPGKERELVAAISSGGRTYYADSVKGRFTISRDNAKNTVYLQMNSLKPEDTAVYYCNAAEQKYSIYYAFDTGPYDYWGQGTQVTVSS | low polyreactivity |
| QVQLVESGGGLVQAGGSLRLSCAASGFIFGGYALGWYRQAPGKERELVAAISWSGDNTYYADSVKGRFTISRDNAKNTVYLQMNSLKPEDTAVYYCAADSYGQEYDYWGQGTQVTVSS | low polyreactivity |
| QVQLVESGGGLVQAGGSLRLSCAASGFIFGGYAMGWYRQAPGKERELVAAITRGGSTDYADSVKGRFTISRDNAKNTVYLQMNSLKPEDTAVYYCAKKTPGWGKFDYWGQGTQVTVSS | low polyreactivity |
| QVQLVESGGGLVQAGGSLRLSCAASGFIFGHNTMGWYRPAPGKERELVAAIDGGGGTSYADSVKGRFTISRDNAKNTVYLQMNSLKPEDTAVYYCAAYVAKGPLEYYYHYPYDYWGQGTQVTVSS | low polyreactivity |
| QVQLVESGGGLVQAGGSLRLSCAASGFIFGHYAMGWYRQAPGKERELVAAITRGGRTNYADSVKGRFTISRDNAKNTVYLQMNSLKPEDTAVYYCNALGKALYRSRFYYWGQGTQVTVSS | high polyreactivity |
| QVQLVESGGGLVQAGGSLRLSCAASGFIFGINAMGWYRQAPWKERELVAAISTGDRTNYADSVKGRFTISRDNAKNTVYLQMNSLKPEDTAVYYCAKDWRRNRPYEWTYDYWGQGTQVTVSS | low polyreactivity |
| QVQLVESGGGLVQAGGSLRLSCAASGFIFGKNALGWYRQAPGKERELVAVISWRGSSTYYADSVKGRFTISRDNAKNTVYLQMNSLKPEDTAVYYCAARYPARGTLYYWGQGTQVTVSS | low polyreactivity |
| QVQLVESGGGLVQAGGSLRLSCAASGFIFGLNAMGWYRQPPGKERELVAVISGRGRTYYADSVKGRFTISRDNAKNTVYLQMNSLKPEDTAVYYCNAVSSYGYDYWGQGTQVTVSS | high polyreactivity |
| QVQLVESGGGLVQAGGSLRLSCAASGFIFGNYVMGWYRQAPGKERELVAAITNGGGNTYYADSVKGRFTISRDNAKNTVYLQMNSLKPEDTAVYYCHPLRYYYWGQGTQVTVSS | high polyreactivity |
| QVQLVESGGGLVQAGGSLRLSCAASGFIFGQYAMGWYRQAPGKERELVAAISWSGGRTNYADSVKGRFTISRDNAKYTVYLQMNSLKPEDTAVSYCAARKGKYPQYTYGYWGQGTQVSVSS | high polyreactivity |
| QVQLVESGGGLVQAGGSLRLSCAASGFIFGRNAMGWYRQAPGKERELVAVISKRSGNTYYADSVKGRFTISRDNAKNTVYLQMNSLKPEDTAVYYCNAVDQKLLRYDYWGQGTQVTVSS | high polyreactivity |
| QVQLVESGGGLVQAGGSLRLSCAASGFIFGRNVMGWYRQAPGKERELVASISRSGGRTTYADSVKGRFTISRDNAKNTVYLLMNSLKPEDTAVYYCAKGQYQWERYVSHADYDWGQVTQVTVSS | high polyreactivity |
| QVQLVESGGGLVQAGGSLRLSCAASGFIFGRYAMGWYRQAPGKERELVAAISRSGGSTHYADSVKGRFTISRDNAKNTVYLQMNSLKQVDTAVYYCNTYLTIWGYFYGYDYWGQGTQVTVSS | high polyreactivity |
| QVQLVESGGGLVQAGGSLRLSCAASGFIFGRYARGWYRQAPVKERELVAAINWSGGSTYYADSVKGRFTISRDNAKNTVYLQMNSLKPEDTAVYYCAARTSRRDGGGSYDYWGQGTQVTVSS | high polyreactivity |
| QVQLVESGGGLVQAGGSLRLSCAASGFIFGSNAMGWYRQAPGKERELVAAISRSGGSTYYADTVKGRFTISRDNAKNTVYLQMNSLKPEDTAVYYCNVDLWPFVYSWWSYDYWGQGTQVTVSS | high polyreactivity |
| QVQLVESGGGLVQAGGSLRLSCAASGFIFGSNVMGWYRQAPGKERELVAAITSGSRTYYADSVKGRFTISRDNAKNTVYLQMNSLKPEDTAVYYCAKRNPIKYYGGGYWGQGTQVTVSS | high polyreactivity |
| QVQLVESGGGLVQAGGSLRLSCAASGFIFGSYAMGWYRQAPGKERELVAAISDSGDSTYYADSVKGRYTISRDNAKNTVYLQMNSLKPEDTAVYYCNRGYRWRRCENYYWGQGTQVTVSS | high polyreactivity |
| QVQLVESGGGLVQAGGSLRLSCAASGFIFGSYTMGWYRQAPGKERELVAAISSSVGRTYYADSVKGRFTISRDNAKNTVYLQMNSLKPEDTAVYYCAARRHGRVDYSQGSRESDYWGQGTQVTVSS | high polyreactivity |

| Sequence | polyreactivity (PSR sort gate) |
| --- | --- |
| QVQLVESGGGLVQAGGSLRLSCAASGFIFGTYAMGWYRQAPGKEWELVAAISSGGSTFYADSVKGRFTISRDNEKNTVYLQMYSLKPEDTAVYYCAKEGGTYRIFNYWGQGTQVTVSS | low polyreactivity |
| QVQLVESGGGLVQAGGSLRLSCAASGFIFGVYAMGWYRQAPGKERELVAAITSSGTSTYYADSVKGRFTISRDNAKNTVYLQMNSLKPEDTAVYYCNKSGYIYHRKLWTPYYYWGQGTQGTVSS | low polyreactivity |
| QVQLVESGGGLVQAGGSLRLSCAASGFIFGWYAMGWYRQAPGKERELVAAISRSGGSTYYADSVKGRFTISRDNAMNTVYLQMNCLKPEDTAVYYCAAQRSYAYEYWGQGTQVTVSS | high polyreactivity |
| QVQLVESGGGLVQAGGSLRLSCAASGFIFGYNAMGWYRQAPGKERELVAAIDWSGTSTYYADSVKGRFTISRDNAKNTVYLQMNSLKPEDTAVYYCAADTSTWAHTRGYDYWGQGTQVTVSS | high polyreactivity |
| QVQLVESGGGLVQAGGSLRLSCAASGFIFGYNGMGWYRQAPGKERELVAYADSVKGRFTISRDNAKNTVYLQMNSLKPEDTAVYFCAADRGYVWRYDYWGQGTQVTVSS | low polyreactivity |
| QVQLVESGGGLVQAGGSLRLSCAASGFIFGYYAMGWYIPAPGKERELVAAISGSGGSTYYADSVKGRFTISRDNAKNTVYLQMNSLKPEDTAVYYCAAYGRAPGTSQRYDYRGQGTQVTVSS | high polyreactivity |
| QVQLVESGGGLVQAGGSLRLSCAASGFIFGYYAMGWYRQAPGKERELVAAISFSGDRTYYADSVKGRFTISRDNAKNTVYLQMNSLKPEDTAVYYCNAKRWGDYTQYRYNYWGQGTQVTVSS | high polyreactivity |
| QVQLVESGGGLVQAGGSLRLSCAASGFIFGYYAMGWYRQAPGKERELVAAISKSGGSTYYADSVKGRFTISRDNAKNTVYLQMNSLKPEDTAVYYCAARYTRPFGPFDYWGQGTQVTVSS | low polyreactivity |
| QVQLVESGGGLVQAGGSLRLSCAASGFIFGYYTMGWYRQAPGKERELVASITRGGSTNYADSVKGRFTISRDNAKNTVYIQMNSLKPEDTAVYYCAKRYAQTYSVSRYYYWGQGTQVTVSS | high polyreactivity |
| QVQLVESGGGLVQAGGSLRLSCAASGFIFGYYTMGWYRQAPGKERELVASITRGGSTNYADSVKGRFTISRDNAKYTVYLQMNSLNPEDTAVYYCAKRYAQTYSVSRYYYWGQGTQVTVSS | high polyreactivity |
| QVQLVESGGGLVQAGGSLRLSCAASGFIFHFNAMGWYRQAPGKERELVAAISRTGGTTYYADSVKGRFTISRDNAKNTVYLQMNSLKPEVTAVYYCAAYSTYVQHYDYWGQGTQVTVSS | high polyreactivity |
| QVQLVESGGGLVQAGGSLRLSCAASGFIFHLYGMAWYRQAPGKERELVAAISSGGRAYYADSVKGRFTISRDNAKNTVYLQMNSLKPEDTAVYDCAVYVAYLYSYYYWGQGTQVTVSS | low polyreactivity |
| QVQLVESGGGLVQAGGSLRLSCAASGFIFHLYSLGWYRQAPGKERELVAVISGGGSTYYADSVKGRFTISRDNAKNTVYLQMNSLKPEDTAVYYCNVGRYYRYATGGDYWGQGTQVTVSS | high polyreactivity |
| QVQLVESGGGLVQAGGSLRLSCAASGFIFHPYAMGWYRQAPGKERELVATITWSDDSTYYADSVKGRFTISRDNAKNTVYLQMNSLKPEDTAVYYCAARHKQHNRYDYWGQGTQVTVSS | low polyreactivity |
| QVQLVESGGGLVQAGGSLRLSCAASGFIFHRYAMGWYRQAPGKERELVASITRSGGSTYYADSVKGRFTISRDNAKNTVYLQMISLKPEDTAVYYCAAQLPSYYKYPRHDYWGQGTQVTVSS | high polyreactivity |
| QVQLVESGGGLVQAGGSLRLSCAASGFIFIFYAMGWYRQAPGKERELVAGISWSSSSTYYADSVKGRFTISRDNAKNTVYLQMNSLKPEDTAVYYCAKDGRSVSGEYDYWGQGTQVTVSS | low polyreactivity |
| QVQLVESGGGLVQAGGSLRLSCAASGFIFITVNAMGWYRQAPGKEREFVAAITRSGTGTYYADSVKGRFTISRDNAKNTVYLQMNSLKPEDTAVYYCAAEWSEESDYWGQGTQVTVSS | low polyreactivity |
| QVQLVESGGGLVQAGGSLRLSCAASGFIFITVNAMGWYRQAPGKEREFVAAITRSGTGTYYADSVKGRFTISRDNAKNTVYLQMNSLKPVDTAVYYCAADATSTGAYDYWGQGTQVTVSS | low polyreactivity |
| QVQLVESGGGLVQAGGSLRLSCAASGFIFITYAMGWYRQAPGKEMELVAAITYSDGSTYYADSVKGRFTISRDNAKNTVYLQMNSLKPEDTAVYYCAADSSTFPADYYWGKGTQVTVSS | low polyreactivity |
| QVQLVESGGGLVQAGGSLRLSCAASGFIFIVNAMGWYRQAPGKERELVATISSSGDITRYADSVKARFTISRDNAKNTVYLQMNSLKPEDTAVYYCAARLWTGYWGQGTQVTVSS | high polyreactivity |
